According to publication PMC6888877, “Deconstructing and repurposing the light-regulated interplay between Arabidopsis phytochromes and interacting factors” (Communications Biology, 2019):

Legend:
P6.A-EYFP = target: T1, P6.A-EYFP (Arabidopsis thaliana); assay: cell-based or functional assay
T1 chain: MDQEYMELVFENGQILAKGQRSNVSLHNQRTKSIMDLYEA

[1] = target: T2, AtPIF6 (1-100)-EYFP, P6.100 (Arabidopsis thaliana, UniProt Q8L5W7 1-100); assay: cell-based or functional assay
T2 sequence (looked up): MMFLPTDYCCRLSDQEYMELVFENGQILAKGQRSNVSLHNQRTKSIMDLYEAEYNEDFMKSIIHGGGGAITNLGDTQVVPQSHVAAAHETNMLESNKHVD

[2] = target: T3, AtPIF3 (1-100)-EYFP, P3.100 (Arabidopsis thaliana, UniProt O80536 1-100); assay: cell-based or functional assay
T3 sequence (looked up): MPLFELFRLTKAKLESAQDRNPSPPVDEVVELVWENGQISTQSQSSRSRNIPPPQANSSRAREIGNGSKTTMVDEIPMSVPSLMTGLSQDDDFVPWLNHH

[3] = target: T2, AtPIF6 (1-100)-EYFP, P6.100; assay: SEC; 50 µM AtPhyB PCM + 10 µM AtPIF-EYFP (5:1), illuminated with red light (650 nm, 2 min; results say 640 nm), Pfr state; Superdex 200 Increase 10/300 GL; 67 mM sodium phosphate pH 8.0, 200 mM NaCl; settings: both partners purified
P6.AAfus-EYFP = target: T4, P6.AAfus-EYFP (Arabidopsis thaliana); assay: as above; settings: both partners purified
T4 chain: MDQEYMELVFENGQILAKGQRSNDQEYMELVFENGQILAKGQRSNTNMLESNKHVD

B1: Arabidopsis thaliana phytochrome B photosensory core module (AtPhyB PCM) (domain or fragment, UniProt P14713 1-651, looked up)
chain: MVSGVGGSGGGRGGGRGGEEEPSSSHTPNNRRGGEQAQSSGTKSLRPRSNTESMSKAIQQYTVDARLHAVFEQSGESGKSFDYSQSLKTTTYGSSVPEQQITAYLSRIQRGGYIQPFGCMIAVDESSFRIIGYSENAREMLGIMPQSVPTLEKPEILAMGTDVRSLFTSSSSILLERAFVAREITLLNPVWIHSKNTGKPFYAILHRIDVGVVIDLEPARTEDPALSIAGAVQSQKLAVRAISQLQALPGGDIKLLCDTVVESVRDLTGYDRVMVYKFHEDEHGEVVAESKRDDLEPYIGLHYPATDIPQASRFLFKQNRVRMIVDCNATPVLVVQDDRLTQSMCLVGSTLRAPHGCHSQYMANMGSIASLAMAVIINGNEDDGSNVASGRSSMRLWGLVVCHHTSSRCIPFPLRYACEFLMQAFGLQLNMELQLALQMSEKRVLRTQTLLCDMLLRDSPAGIVTQSPSIMDLVKCDGAAFLYHGKYYPLGVAPSEVQIKDVVEWLLANHADSTGLSTDSLGDAGYPGAAALGDAVCGMAVAYITKRDFLFWFRSHTAKEIKWGGAKHHPEDKDDGQRMHPRSSFQAFLEVVKSRSQPWETAEMDAIHSLQLILRDSFKESEAAMNSKVVDGVVQPCRDMAGEQGIDELGA
modifications: covalently incorporated bilin chromophore (PCB; co-expressed Synechocystis sp. heme oxygenase 1 and pcyA)
notes: A. thaliana phytochrome B, photosensory core module (PAS-GAF-PHY with N-terminal extension), residues 1-651; Pr state (far-red light or dark) and Pfr state (red light; Pfr/Pr about 0.56/0.44) are told apart by the assays; In the cell experiments other constructs were used (PCM-VP16; PCM 1-650 with CAAX); source: E. coli BL21(DE3), plasmid pDG282, purified (Ni-NTA IMAC, anion exchange)
Question: What does the source list for B1?
Answer: normalized SEAP reporter expression in CHO-K1 cells, split transcription factor (AtPhyB PCM-VP16 + E-protein-AtPIF variant), red light against darkness (P6.A-EYFP): 43 fold; normalized SEAP reporter expression in CHO-K1 cells, split transcription factor (AtPhyB PCM-VP16 + E-protein-AtPIF variant), red light against darkness [1]: 4 fold; normalized SEAP reporter expression in CHO-K1 cells, split transcription factor (AtPhyB PCM-VP16 + E-protein-AtPIF variant), red light against darkness [2]: 10 fold; stoichiometry N [3]: 1; stoichiometry N (P6.AAfus-EYFP): 1
